Biological target: γ-tubulin of pig brain γ-tubulin complexes (pig (endogenous in brain))
Test: quantitative immunoblot of the purified complexes

76p of pig brain γ-tubulin complexes (76-kD polypeptide, pig orthologue of h76p = hGCP4) (natural protein)
abundance of 76p against γ-tubulin in the purified complexes: 5 fold
